Data on 19 molecules can be found in patent publication US20260258115A1 (MAPP BIOPHARMACEUTICAL, published 2026).

Numbering of substitutions follows the chain as printed. Bounds are passed on as bounds.

Assay [1] has as its target T1, RSV postfusion F (postF), subtype A (respiratory syncytial virus subtype A, UniProt P03420 26-513).
T1 construct: also called Postfusion subtype A; F deltaFP
Put plainly: BLI, IgG.

For assay [2], the target named is RSV postfusion F (postF), F ΔFP (Respiratory Syncytial Virus, UniProt P03420 26-513). Put plainly: BLI, IgG on anti-human IgG sensor, 100 nM antigen, 1:1 fit.
The target of assay [3] is RSV prefusion F (preF), DS-Cav1 (Respiratory Syncytial Virus, UniProt P03420 26-513). Described as above.
Assay [4] has as its target RSV F on RSV-A2 virus (Respiratory Syncytial Virus (RSV-A2), UniProt P03420 26-574). Put plainly: cell-based or functional assay.

B1: ADI-24808 (antibody, V domains shown)
VH: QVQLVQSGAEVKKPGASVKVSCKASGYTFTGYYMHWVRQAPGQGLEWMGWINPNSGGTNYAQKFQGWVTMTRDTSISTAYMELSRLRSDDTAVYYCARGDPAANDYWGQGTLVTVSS
VL: QPVLTQPPSASGSPGQSVTISCTGTSSDVGGYNYVSWYQQHPGKAPKLMIYEVSKRPSGVPDRFSGSKSGNTASLTVSGLQAEDEADYYCSSYAGSNNVVFGGGTKLTVL
notes: full-length IgG
In turn, B1 returned a Kd in assay [1] of 10.8 nM. That is a double-digit nanomolar value.

B2: ADI-24851 (antibody, V domains shown)
VH: not shown
VL: B1 VL with P2S, T5I
notes: full-length IgG
For the molecule B2, binding in assay [1] was put at a Kd of 20.9 nM.

B3: ADI-41549 (antibody, V domains shown)
VH: EVQLLESGGGVVQPGGSLRLSCAASGFTFSGYGMHWVRQAPGKGLEWVAFIQYNGSNKYYADSVKGRFTISRDNSKNTLYVQLNSLRAEDTAVYYCATDILVVPAATPLISYYFGMDVWGQGTTVTVSS
VL: QSALTQPASVSGSPGQSITISCTGTSSDVGGYNYVSWYQQYPGKAPKLMIYEVTNRPSGVSNRFSGSKSGNTASLTISGLQAEDEADYYCCSYTSTNTRVFGTGTKVTVL
notes: also called Ab 821; Antibody Number 821
Consider B3, for which the figures for the dissociation constant Kd in assay [2] and in assay [3] were 1.56 nM and 0.408 nM, respectively. The “Neutralization IC50 (RSV subtype A)” value in assay [4] is greater than 25 µg/mL.

B4: ADI-41538 (antibody, V domains shown)
VH: EVQLVESGGGLVKPGGSLRLSCAASGFTLSTYGVNWVRQAPGKGLEWVSSISSSGNNIHYADSVKGRFTVFRDNAKHSMYLQMNSLRAEDTAVYYCARSLDYSNYYYYYGLDVWGQGTTVTVSS
VL: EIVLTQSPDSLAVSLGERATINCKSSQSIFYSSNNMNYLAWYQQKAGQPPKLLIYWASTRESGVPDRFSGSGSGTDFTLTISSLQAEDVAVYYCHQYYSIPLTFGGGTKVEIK
notes: also called Ab 810; Antibody Number 810
Take B4: the Kd in assay [2] worked out at 0.587 nM; in assay [3] it was 3.44 nM. In assay [4], the “Neutralization IC50 (RSV subtype A)” value was greater than 25 µg/mL.

B5: ADI-41541 (antibody, V domains shown)
VH: QITLKESGPTLVKPTQTLTLTCTFSGFSLSSSGVGVGWIRQPPGKALEWLALIYWDDDKRYSPSLKSRLTITKDTSKNQVVLTMTNMDPVDTATYYCAHRGPYYYDMSGYYYEAFDIWGQGTTVTVSS
VL: SYELMQPPSVSVAPGQTARITCGGNNIGSKGVHWYQQKPGQAPVLVVYDDNDRPSGIPERFSGSNSGNTATLTISRVEAGDEADYYCQVWDSSSDHHYVFGTGTKVTVL
notes: also called Ab 813; Antibody Number 813
As to B5, the Kd is 0.776 nM in assay [2] and 2.47 nM in assay [3]. In addition, the “Neutralization IC50 (RSV subtype A)” value in assay [4] is greater than 25 µg/mL.

B6: ADI-41545 (antibody, V domains shown)
VH: QVQLVESGPGLVKPSETLSLTCTVSGGSISRYYWSWIRQSPGKGLEWIGYIYHSVITNYNPSLKSRVTISIDMSKNQFSLKLSSVTAADTAVYYCASRPLINGYGPDNYFDYWGQGTLVTVSS
VL: SYVLTQPPSVSVAPGQTARITCGGNNIGSKSVHWYQRKPGQAPVLVVYDDSDRPSGIPERFSGSNSGNTATLTIIRVEAGDEADYYCQVWDNSSDHPVFGGGTKLTVL
notes: also called Ab 817; Antibody Number 817
As to B6, the values for the equilibrium dissociation constant (Kd) in assay [2] and in assay [3] were 0.825 nM and 1.36 nM, respectively. Moreover, the “Neutralization IC50 (RSV subtype A)” value in assay [4] is greater than 25 µg/mL.

B7: ADI-41539 (antibody, V domains shown)
VH: QVQLVESGAEVKKPGASVKVSCKASGYNFIDYGISWVRQAPGQGLEWVGWISAYNGNTNYAQKLQGRVTMTTDTSTNTAYMELRSLRSDDTALYYCARDSSSLHPTYYYYYPMDVWGQGTTVTVSS
VL: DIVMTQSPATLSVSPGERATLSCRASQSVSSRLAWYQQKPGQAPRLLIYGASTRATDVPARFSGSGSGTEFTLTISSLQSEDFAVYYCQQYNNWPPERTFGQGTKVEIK
As to B7, the equilibrium dissociation constant (Kd) turned out to be 0.615 nM in assay [2] and 3.38 nM in assay [3]. For the same molecule, in assay [4], the “Neutralization IC50 (RSV subtype A)” value came to 0.18 µg/mL.

B8: ADI-41533 (antibody, V domains shown)
VH: QVQLVESGGGVVQPGRSLRLSCAASGFTFSSYAMHWVRQAPGKGLEWLAVISFDGSSEFYGDSVRGRFTISRDNSKNTLYLRVNSLRAEDTALYYCARRSLKYSMYNNDAFDVWGQGTTVTVSS
VL: QPVLTQPPSVSVSPGQTASITCSGDKLGNKFTFWYQQKSGQSPVLVIYQESQRPSGIPERFSGSNSGNTATLTIRGAQAMDEADYYCQAWDSSTAFFGGGTKLTVL
As to B8, the Kd was determined as 0.423 nM in assay [2] and 1.47 nM in assay [3]. For the same molecule, the “Neutralization IC50 (RSV subtype A)” value in assay [4] was greater than 25 µg/mL.

B9: ADI-41551 (antibody, V domains shown)
VH: QVQLQESGGGVVQPGGSLRLSCAASGFTFSRHWMHWVRQVPGKGLVWVSRINSDESTIDYADSVKGRFTISRDNAKNTLYLQMNSLRAEDTAVYYCVRDMVAVPGTTGGDYWGQGTLVTVSS
VL: SYELTQPPSVSVSPGQTADITCSGDKLGDKYACWYQQRAGQSPILVLYQDTRRPSGIPERFSGSNSGDTATLTISGTQAMDEADYYCQAWDSSTAWVFGGGTKLTVL
notes: also called Ab 823; Antibody Number 823
As to B9, the Kd came out at 23.8 nM in assay [2] and 13 nM in assay [3]. Moreover, the “Neutralization IC50 (RSV subtype A)” value in assay [4] is greater than 25 µg/mL.

B10: ADI-41540 (antibody, V domains shown)
VH: QVQLQQWGAGLLKPSETLSLTCGVYGGSFTGYQWSWIRQSPGKGLEWIGDIDHGGNTNYRPSLKSRIITSVNMSKKEFSLKLASVTAADTAVYYCARGVGFLEFSGGPTGRRRNWFDSWGQGTLVTVSS
VL: DIQLTQSPGTLSLSPGEGATLSCRASQSVGGSYLAWYQQRPGQAPRLLIYGASNRAADSPDRFSGSGSATDFTLTISRLEPEDFAVYYCQQYGSSPWTFGQGTKVEIK
For the molecule B10, the Kd in assay [2] is 0.686 nM; in assay [3] it was 3.54 nM. Also, in assay [4], the “Neutralization IC50 (RSV subtype A)” value was greater than 25 µg/mL.

B11: ADI-41543 (antibody, V domains shown)
VH: QVQLVQSGAEVKKPGASVRVSCKASGYTLTGYYIHWLRQAPGQGLEWVGRINPNTGETSYSQKFQGRVIMTRDTSVSTAYVDLSRLRSRDTAVYFCARSDVMITVTAEGDFSYYYYRFDVWGQGTTVTVSS
VL: DIVMTQTPLSLPVTPGEPASISCRSSQSLLHSNGHNYLDWYLQKPGQSPQLLIYLGSIRASGVSDRFSGSGSGTDFTLKISRVEAEDVGIYYCMQALQTPHFGGGTKVEIK
Take B11: the values for the Kd in assay [2] and in assay [3] were 0.796 nM and 2.9 nM, respectively. Also, the “Neutralization IC50 (RSV subtype A)” value in assay [4] is greater than 25 µg/mL.

B12: ADI-41537 (antibody, V domains shown)
VH: EVQLLESGGGLVQPGGSLRLSCAASEFTFSRYPMSWVRQAPGKGLEWVSGISVSGDSTYYADSVKGRLTISRDNSKNTLYLQMNSLRAEDTAVYYCAIDHYDTSGYYGMDVWGQGTTVTVSS
VL: DIRLTQSPLSLPVTPGEPASISCRSSRSLLRSNGYNYLDWYLQKPGQSPQLLIYLGSNRASGVPDRFSGSGSGTDFTLKISRVEAEDVGVYYCMQALQSSYTFGQGTKLEIK
In the case of B12, the Kd was determined as 0.488 nM in assay [2] and 2.58 nM in assay [3]. Further, the “Neutralization IC50 (RSV subtype A)” value in assay [4] is greater than 25 µg/mL.

B13: ADI-41547 (antibody, V domains shown)
VH: QVQLVQSGAEVKKPGSSVKVSCKASGGSFSSNTINWVRQAPGQGLEWMGGIIPVFETPNYAQKFQGRVSFTADESTRTAYMELSSLRSEDTAVYFCARQGMSYYDTNGNYYVGWFDTWGQGTLVTVSS
VL: EIVLTQSPGTLSLSPGERATLSCRASQSLNNNYLAWYQRKPGQAPRLLIYGAGAFSRATGIPDRFSGSGSGTDFTLTISRLEPEDFALYYCQQYGSSPLTFGQGTRLEIK
notes: also called Ab 819; Antibody Number 819
In the case of B13, the figures for the dissociation constant Kd in assay [2] and in assay [3] were 1.08 nM and 3.19 nM, respectively. For the same molecule, the “Neutralization IC50 (RSV subtype A)” value in assay [4] worked out at 0.05 µg/mL.

B14: ADI-41536 (antibody, V domains shown)
VH: EVQLVESGAGLLKPSETLSLTCVVYGGSFSGYYWSWIRQPPGKGLEWVGDINHSTTTNYNPSLESRITISIDTSKNQFSLNLSSVTAADSAVYYCARGPKECTSSSCDRFGVDYFYYGMDVWGRGTTVTVSS
VL: QSVLTQPPSVSGAPGQRVTISCTGSSANIGAGYDVHWYQQFPGTAPKLLIFGNSNRPSGVPDRFSGSKSGTSASLAITGLQAEDEADYYCQSYDGTLGGWVFGGGTQLTVL
notes: also called Ab 808; Antibody Number 808
As for B14, the dissociation constant (Kd) was 0.476 nM in assay [2] and 3.05 nM in assay [3]. In addition, the “Neutralization IC50 (RSV subtype A)” value in assay [4] was greater than 25 µg/mL.

B15: ADI-41534 (antibody, V domains shown)
VH: QVQLVQSGGGVVQPGRSLRLSCAASGFTFSNYAMHWVRQAPGKGLEWVTLISYDGSAQDYADSVKGRITISRDNSKNTLYLQMSSLRPEDTAVYYCARYYCTNDVCSSSALDIWGQGTTVTVSS
VL: SYELIQPPSVSVSPGQTASITCSGDKLGNKFTCWYQQKPGQSPVLVIYQDSKRPSGIPERFSGSNSGNTATLTISGTQAMDEADYYCQAWDSSTVVFGGRTKLTVL
notes: also called Ab 806; Antibody Number 806
As for B15, the dissociation constant Kd in assay [2] was 0.472 nM; in assay [3] it was 3.31 nM. Besides, in assay [4], the “Neutralization IC50 (RSV subtype A)” value was greater than 25 µg/mL.

B16: ADI-41535 (antibody, V domains shown)
VH: QVTLKESGPALVKPTQTLTLTCTFSGFSLSTSRMCVSWIRQSPGKALEWLARIDWDDDKFFSTSLKTRLTISKDTSRNQVVLTMTNMDPVDTATYYCARTTVYASGGYYLYYFDYWGQGTLVTVSS
VL: DIQLTQSPSSLPASVGDRVTITCRASQRIASYLNWYQQKPGKAPKVLIYAASNLQSGVPSRFSGSGSGTDFTLTINSLQPEDFATYYCQQSYTTPWTFGQGTKVEIK
Take B16: the Kd amounted to 0.476 nM in assay [2] and 1.93 nM in assay [3]. Moreover, the “Neutralization IC50 (RSV subtype A)” value in assay [4] was greater than 25 µg/mL.

B17: ADI-24818 (antibody, V domains shown)
VH: not shown
VL: QPVLTQPASVSGSPGQSITISCTGTSSDVGGYNYVSWYQQHPGKAPKLMIYDVSNRPSGVSNRFSGSKSGNTASLTISGLQAEDEADYYCSSYTSSSTLVFGGGTQLTVL
notes: full-length IgG; also called Ab 380
Take B17: the dissociation constant Kd in assay [1] came out at 6.47 nM.

B18: ADI-41548 (antibody, V domains shown)
VH: QVQLQQWGPGLVKPSETLSLTCTVSGASITSHYWSWLRQPAGKGLEWIGRFYPSGTTEKTPSLKSRVTLSVDTSKNHFSLKLTSVTAADTAVYYCARDSYDDIAGSYEYYFADWGQGTLVTVSS
VL: EIVLTQSPATLSVSPGERATLSCRASQSVSSNLAWYQQKPGQAPRLLIYDISTRATGVPARFSGSGSGTEFTLTITSLQSEDFTVYYCQQYNNWPPTFGQGTKLEIK
notes: also called Ab 820; Antibody Number 820
With B18, the results for the Kd in assay [2] and in assay [3] were 1.45 nM and 2.56 nM, respectively. Moreover, the “Neutralization IC50 (RSV subtype A)” value in assay [4] is greater than 25 µg/mL.

B19: ADI-19485 (antibody, V domains shown)
VH: QVQLQESGPGLVKPSQTLSLSCTVSGGSISSTNYYWTWIRQHPGKGLEWIGFIYNRGSTYYNPSLTSRVTISVDTSKNQFSLKLTSVTAADTAVYYCARAPYYYDRNGYYTAFDIWGQGTTVTVSS
VL: B18 VL with I51A, G57D, V58I, S65G, T76S, T84A, P96R, Q100L, L104V, E105D
notes: full-length IgG
Take B19: the Kd in assay [1] is 0.251 nM.
